We go through ten substances from PMC9253516.

For assay [1], the target named is Sgo1_(1–415) (human) (UniProt Q5FBB7). Kind of assay: mass photometry; samples cross-linked with 0.01% glutaraldehyde 5 min at 4°C, quenched with Tris; 20 nM measured in 25 mM Hepes pH 8, 250 mM NaCl, 2 mM DTT.
For assay [2], the target named is Aurora B (endogenous) (UniProt Q96GD4). Kind of assay: LacO-LacI tethering assay, immunofluorescence in U-2 OS-LacO Haspin CM cells. Conditions: n = 17 (parent), red bar = mean, parent: est. 3.5, read off a plot.
Chain of Aurora B (endogenous) (Q96GD4 whole entry): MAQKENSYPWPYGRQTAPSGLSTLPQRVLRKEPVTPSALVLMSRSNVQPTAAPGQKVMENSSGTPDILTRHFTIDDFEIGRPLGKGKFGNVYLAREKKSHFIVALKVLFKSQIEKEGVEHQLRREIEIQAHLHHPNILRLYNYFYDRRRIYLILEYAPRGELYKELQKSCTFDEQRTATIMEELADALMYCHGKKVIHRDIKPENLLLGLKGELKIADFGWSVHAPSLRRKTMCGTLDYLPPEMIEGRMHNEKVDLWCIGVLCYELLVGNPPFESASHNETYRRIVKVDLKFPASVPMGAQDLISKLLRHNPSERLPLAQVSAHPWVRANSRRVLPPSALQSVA
Assay [3] deals with Borealin (endogenous) (UniProt Q53HL2). The description is as above. Particulars: n = 22 (parent), red bar = mean, parent: est. 1.5, read off a plot.
Assay [4] concerns the target Sgo1_(1–130) (human) (UniProt Q5FBB7). Kind of assay: ITC; Survivin or CPC (monomer concentration) injected into Sgo1 constructs, 20°C; 50 mM Hepes pH 8, 150 mM NaCl, 5% glycerol, 1 mM TCEP; standard 1:1 binding model. On the technique in general: ITC needs no label: the signal is the heat of the interaction.
Assay [5] deals with Sgo1_(1–155) (human) (UniProt Q5FBB7). The description is as above.
Assay [6] addresses Sgo1_(1–415 4A) (human) (UniProt Q5FBB7). Kind of assay: ITC; 100 μM CPC injected into 10 μM Sgo1 1-415 or 1-415 4A, 20°C; 50 mM Hepes pH 8, 250 mM NaCl, 5% glycerol, 1 mM TCEP, 0.005% Tween; standard 1:1 binding model.
Assay [7] deals with Sgo1_(1–415) (human) (UniProt Q5FBB7). The assay is described as above.
Assay [8] shares this target. Kind of assay: ITC; Survivin or CPC (monomer concentration) injected into Sgo1 constructs, 20°C; 50 mM Hepes pH 8, 150 mM NaCl, 5% glycerol, 1 mM TCEP; standard 1:1 binding model.

For the substance “Sgo1_(1–415) (from UniProt Q5FBB7 1-415) (domain or fragment)”, in assay [1], the stoichiometry N was 2.

For “Sgo1_(1–527)-LacI-GFP Nmut; V188A; S189A; V190A; R191A”, the results for the response in assay [2] (n = 22 (mutant)) and in assay [3] (n = 22 (mutant)) were 0.4 a.u and 0.28 a.u, respectively.

As for “Survivin full length (from UniProt O15392 1-142) (natural protein)”, the Kd in assay [4] stood at 0.255 µM; in assay [5], 0.24 µM.

For the substance “CPC_(ISB10–280) (INCENP_(1–58), Survivin full length, Borealin_(10–280)) (from UniProt Q9NQS7 1-58; O15392 1-142; Q53HL2 10-280) (complex)”, the stoichiometry N in assay [1] was 1 ratio (2:2); in assay [8] it was 1. Also, the dissociation constant Kd turned out to be 0.112 µM in assay [6]; 0.151 µM in assay [7]; 0.0574 µM in assay [4]; 0.0712 µM in assay [5]; 0.0528 µM in assay [8]. The dH in assay [8] is -6.58 kcal/mol.

With Sgo1_(1–527)-LacI-GFP Nmut, the results for the response in assay [2] (n = 14 (mutant)) and in assay [3] (n = 23 (mutant)) were 2.3 a.u and 0.6 a.u, respectively.

As for “CPC_(ISB10–280 H80A) (from UniProt Q9NQS7 1-58; O15392 1-142; Q53HL2 10-280) (complex)”, the Kd in assay [5] came to 0.112 µM.

With “Survivin_(1–116) (from UniProt O15392 1-116) (domain or fragment)”, the Kd in assay [5] was 0.408 µM.

The substance “CPC_(ISB10–280 K62A) (from UniProt Q9NQS7 1-58; O15392 1-142; Q53HL2 10-280) (complex)” registered a dissociation constant Kd in assay [5] of 0.0424 µM.

Take “Sgo1_(1–527)-LacI-GFP V188A; S189A; V190A; R191A”: the response in assay [2] (n = 19 (mutant)) is 1.6 a.u.

On to “CPC_(ISB10–221) (INCENP_(1–58), Survivin, Borealin_(10–221)) (from UniProt Q9NQS7 1-58; O15392 1-142; Q53HL2 10-221) (complex)”, for which, in assay [4], the Kd stood at 0.163 µM.

The stoichiometry N is the number of molecules, sites or subunits per partner or assembly. The Kd is the concentration at which binding is half-saturated. Lower therefore signals tighter binding.
